Laboratory results taken from patent US12692524B2, “Sialyltransferases and their use in producing sialylated oligosaccharides” (Chr. Hansen A/S, priority 2017, dated 2026).

Assay: In vitro sialylation of LNT by protein extracts, LST-a/-b quantified by LC-MS/MS
Assay type: biochemical
Conditions: 5 mM LNT, 10 mM CMP-Neu5Ac, 16 hours, LC-MS/MS; relative quantity; n.d.: not detectable
Method: Escherichia coli BL21(DE3) harbouring plamids encoding for 100 sialyltransferases were grown at 30° C. in 100 ml shake flasks filled with 20 ml of 2YT medium supplemented with ampicillin 100 μg ml^−1. When the cultures reached an OD600 of 0.1 to 0.3, gene expression was induced by addition of 0.3 mM IPTG and the incubation was continued for 12 to 16 hours. Cells were harvested by centrifugation and mechanically disrupted in a defined volume of 50 mM Tris-HCl pH7.5 using glass beads. The protein extract was kept on ice until the assay started. The in vitro assay was carried out in a total volume of 25 μl including 50 mM Tris-HCl pH7.5, 5 mM MgCl2, 10 mM CMP-Neu5Ac and 5 mM LNT. The assay started with the addition of 3 μl protein extract and continued for 16 hours. Product formation was determined by mass spectrometry.
Mass spectrometry analysis was performed by MRM (multiple reaction monitoring) using a LC Triple-Quadrupole MS detection system. Precursor ions are selected and analyzed in quadrupole 1, fragmentation takes place in the collision cell using argon as CID gas, selection of fragment ions is performed in quadrupole 3. Chromatographic separation of lactose, 3′-Sialyllactose and 6′-Sialyllactose after dilution of culture supernatant 1:100 with H2O (LC/MS Grade), was performed on a XBridge Amide HPLC column (3.5 μm, 2.1×50 mm (Waters, USA) with a XBridge Amide guard cartridge (3.5 μm, 2.1×10 mm) (Waters, USA). Column oven temperature of the HPLC system was 50° C. The mobile phase was composed of acetonitrile:H2O with 10 mM ammonium acetate. A 1 μl sample was injected into the instrument; the run was performed for 3.60 min with a flow rate of 400 μl/min. 3′-Sialyllactose and 6′-Sialyllactose were analyzed by MRM in ESI positive ionization mode. The mass spectrometer was operated at unit resolution. Sialyllactose forms an ion of m/z 656.2 [M+Na]. The precursor ion of Sialyllactose was further fragmented in the collision cell into the fragment ions m/z 612.15, m/z 365.15 and m/z 314.15. Collision energy, Q1 and Q3 Pre Bias were optimized for each analyte individually. Chromatographic separation of lactose, LNT-II, LNT and LST-a or -b after dilution of particle-free biocatalysis-reaction or crude extract, respectively, 1:50 with H2O (LC/MS Grade), was performed on a XBridge Amide HPLC column (3.5 μm, 2.1×50 mm (Waters, USA) with a XBridge Amide guard cartridge (3.5 μm, 2.1×10 mm) (Waters, USA). Column oven was run at 35° C. The mobile phase was composed of acetonitrile:H2O with 0.1% ammonium hydroxide. A 1 μl sample was injected into the instrument; the run was performed for 3.50 min with a flow rate of 300 μl/min. Lactose, LNT-II, LNT as well as LST-a and -b were analyzed by MRM in ESI negative ionization mode. The mass spectrometer was operated at unit resolution. Lactose forms an ion of m/z 341.00 [M−H]. The precursor ion of Lactose was further fragmented in the collision cell into the fragment ions m/z 179.15, m/z 161.15 and m/z 101.05. LNT-II forms an ion of m/z 544.20 [M−H]. The precursor ion of LNT-II was further fragmented into the fragment ions m/z 382.10, m/z 161.00 and m/z 112.90. LNT forms an ion of m/z 706.20 [M−H]. The precursor ion of LNT was further fragmented into the fragment ions m/z 382.10, m/z 202.10 and m/z 142.00. LST-a and -b forms an ion of m/z 997.20 [M−H]. The precursor ion of LST-a and-b was further fragmented into the fragment ions m/z 290.15, m/z 202.15 and m/z 142.15. Collision energy, Q1 and Q3 Pre Bias were optimized for each analyte individually. Quantification methods were established using commercially available standards (Carbosynth, Compton, UK).
Twenty eight genes were identified to produce LST-a whereas only 6 enzymes synthesized LST-b. […] Irrespectively of the protein overexpression level, sialyltransferases that produced best were selected for determination of Km and Vmax.

B1: SiaT5: sialyltransferase of Helicobacter acinonychis, acc. NC_008229, SEQ ID NO: 33 (protein, listed as Heliobacter acinonychis)
chain: MGTIKKPLIIAGNGPSIKDLDYALFPKDFDVFRCNQFYFEDKYYLGREIKGVFFNPCVLSSQMQTVQYLMDNGEYSIERFFCSVSTDRHDFDGDYQTILPVDGYLKAHYPFVCDTFSLFKGHEEILKHVKYHLKTYSKELSAGVLMLLSAVVLGYKEIYLVGIDFGASSWGHFYDESQSQHFSNHMADCHNIYYDMLTICLCQKYAKLYALAPNSPLSHLLTLNPQAKYPFELLDKPIGYTSDLIISSPLEEKLLEFKNIEEKLLEFKNIEEKLLEFKNIEEKLLEFKNIEEKLLEFKNIEEKLLEFKNIEEKLLEFKNIEEKLLEFKNIEEKLLEFKNIEEKLLEFKNIEEKLLEFKNIEEKLLEFKNIEEKLLEFKNIEEKLLASRLNNILRKIKRKILPFFWGGGVTPTLKVSFRWGAA
  Relative efficacy of sialyltransferases regarding in-vitro production of sialyllacto-N-tetraoses: LST-b: 1

B2: SiaT4: sialyltransferase of Helicobacter acinonychis, acc. NC_008229, SEQ ID NO: 11 (protein, listed as Heliobacter acinonychis)
chain: MNKKPLIIAGNGPSIKDLDYALFPKDFDVFRCNQFYFEDKYYLGREIKGVFFNAHVFDLQMKITKAIVKNGEYHPDHIYCTHVEPYGYVNGNQQLMQEYLEKHFVGVRSTYAYLKDLEPFFILHSKYRNFYDQHFTTGIMMLLVAIQLGYKEIYLCGIDFYENGFGHFYENQGGFFEEDSDPMHDKNIDIQALELAKKYAKIYALVPNSALVKMIPLSSQKGVLEKVKDRIGLGEFKREKFGQKELERQKELERQKELERQKELERQKELERQKELERQKELERQKELERQKELERQKELERQKELERQKELERQKELERQKELERQKELERQKELELERSLKARLKAVLASKGIRGDNLIIVSLKDTYRLFKGGFALLLDLKALKSIIKAFLKR
  Relative efficacy of sialyltransferases regarding in-vitro production of sialyllacto-N-tetraoses: LST-a: 654

B3: SiaT7: sialyltransferase of Pasteurella dagmatis strain DSM 22969, acc. AFY98851, SEQ ID NO: 7 (protein, listed as Pasteurella dagmatis)
chain: MTIYLDPASLPTLNQLMHFTKESEDKETARIFGFSRFKLPEKITEQYNNIHFVEIKNNRPTEDIFTILDQYPEKLELDLHLNIAHSIQLFHPILQYRFKHPDRISIKSLNLYDDGTMEYVDLEKEENKDIKSAIKKAEKQLSDYLLTGKINFDNPTLARYVWQSQYPVKYHFLSTEYFEKAEFLQPLKTYLAGKYQKMDWSAYEKLSPEQQTFYLKLVGFSDETKQLFHTEQTKFIFTGTTTWEGNTDIREYYAKQQLNLLKHFTHSEGDLFIGDQYKIYFKGHPRGGDINDYILKHAKDITNIPANISFEILMMTGLLPDKVGGVASSLYFSLPKEKISHIIFTSNKKIKNKEDALNDPYVRVMLRLGMIDKSQIIFWDSLKQL
  Relative efficacy of sialyltransferases regarding in-vitro production of sialyllacto-N-tetraoses: LST-a: 2.25 × 10^3

B4: SiaT3: sialyltransferase of Campylobacter jejuni strain OH4384, acc. AX934425, SEQ ID NO: 12 (protein, listed as Campylobacter jejuni)
chain: MGKKVIIAGNGPSLKEIDYSRLPNDFDVFRCNQFYFEDKYYLGKKCKAVFYNPILFFEQYYTLKHLIQNQEYETELIMCSNYNQAHLENENFVKTFYDYFPDAHLGYDFFKQLKDFNAYFKFHEIYFNQRITSGVYMCAVAIALGYKEIYLSGIDFYQNGSSYAFDTKQKNLLKLAPNFKNDNSHYIGHSKNTDIKALEFLEKTYKIKLYCLCPNSLLANFIELAPNLNSNFIIQEKNNYTKDILIPSSEAYGKFSKNIN
  Relative efficacy of sialyltransferases regarding in-vitro production of sialyllacto-N-tetraoses: LST-a: 605
